Assay results: article PMC7321126, “Recombinant Expression and Stapling of a Novel Long-Acting GLP-1R Peptide Agonist” (Molecules, 2020)

Assays:
[1] = target: GLP-1R on cAMP Hunter CHO cells (UniProt P43220)
[2] = target: human GLP-1R on HEK293-GLP-1R-CRE cells (human) (UniProt P43220)
human GLP-1R on HEK293-GLP-1R-CRE cells (human), sequence (P43220 24-463): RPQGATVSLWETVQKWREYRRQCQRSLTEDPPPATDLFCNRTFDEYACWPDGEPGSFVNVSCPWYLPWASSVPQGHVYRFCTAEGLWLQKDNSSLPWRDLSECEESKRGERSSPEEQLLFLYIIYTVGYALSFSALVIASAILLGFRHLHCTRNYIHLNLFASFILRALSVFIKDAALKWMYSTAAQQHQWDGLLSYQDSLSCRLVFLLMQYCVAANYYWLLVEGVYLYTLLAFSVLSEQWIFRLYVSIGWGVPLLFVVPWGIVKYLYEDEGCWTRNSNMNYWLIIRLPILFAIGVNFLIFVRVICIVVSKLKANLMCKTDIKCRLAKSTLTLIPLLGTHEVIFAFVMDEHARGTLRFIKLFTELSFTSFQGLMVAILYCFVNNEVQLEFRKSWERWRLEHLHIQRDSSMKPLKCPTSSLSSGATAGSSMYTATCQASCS

GLP-1R on cAMP Hunter CHO cells, sequence (P43220 24-463): as above

Substance | EC50, intracellular cAMP (HTRF) assay in cAMP Hunter CHO cells expressing GLP-1R [1] [nM] | EC50, CRE luciferase reporter assay in HEK293-GLP-1R-CRE cells [2] [nM]
Semaglutide (peptide) | 0.21 | 0.024
exenatide (Ex-4) (from UniProt P26349 48-87) (peptide) | 0.111 | 0.037
